Results published in patent publication US20120219567A1 (Biogen, published 2012).

T1: human NgR mutant 163 (mutated to alanine) (human, UniProt Q9BZR6 27-445)
T1 sequence: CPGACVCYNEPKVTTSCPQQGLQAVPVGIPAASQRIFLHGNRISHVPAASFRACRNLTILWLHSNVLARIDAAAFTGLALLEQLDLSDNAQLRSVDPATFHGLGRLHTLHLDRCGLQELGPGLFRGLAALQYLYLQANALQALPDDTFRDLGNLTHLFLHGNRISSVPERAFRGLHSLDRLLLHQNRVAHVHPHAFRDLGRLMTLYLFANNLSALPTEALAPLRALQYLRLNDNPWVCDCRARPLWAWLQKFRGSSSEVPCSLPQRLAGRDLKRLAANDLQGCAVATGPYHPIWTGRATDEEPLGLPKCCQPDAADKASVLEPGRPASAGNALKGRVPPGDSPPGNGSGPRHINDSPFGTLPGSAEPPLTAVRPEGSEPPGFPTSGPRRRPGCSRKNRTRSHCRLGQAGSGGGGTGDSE

B1: AP-Nogo-66 (ligand, UniProt Q9NQC3 1055-1120, looked up)
chain: RIYKGVIQAIQKSDEGHPFRAYLESEVAISEELVQKYSNSALGHVNCTIKELRRLFLVDDLVDSLK
notes: domain: Nogo-66; also called AP-Ng-66; Nogo-66 ligand; not shown: alkaline phosphatase (AP) moiety

How the values were obtained:
AP-Nogo-66 = target: B1; experiment: AP-ligand binding to transfected COS-7 cells
Procedure: (§1) In order to probe the NgR domains that interact with Aβ and Nogo-66, a strategy based on the crystal structure of NgR was employed. A number of human NgR surface-accessible residues were mutated to Ala either individually or as groups of adjacent residues (Table 3), and resultant ligand binding characteristics were assessed. The ligand concentrations were AP, 30 nM, AP-Nogo-66, 5 nM, AP-Aβ(1-28), 50 nM. NgR mutagenesis has been previously described. Hu et al., J Neurosci 25:5298-5304 (2005); Fournier et al., J Neurosci 23:1416-1423 (2003). The expression of each mutant NgR protein was verified by immunohistochemical detection at the surface of cells transfected with expression vector (FIG. 2a). Bound AP was stained and measured using NIH image software. Mutants of human NgR were detected on the surface of transfected COS-7 immunofluorescently. For each of the mutants with altered binding characteristics, expression of immunoreactive NgR protein with electrophoretic mobility similar to wild type was also confirmed by immunoblot (FIG. 2c). Whole COS-7 cell lysates expressing NgR mutants were subjected to SDS-PAGE and blotted with anti-NgR antibodies. The mobility of each mutant was indistinguishable from wild type NgR, except for the mutations in N-linked glycosylation sites (N82 and N179). The binding of both AP-Aβ(1-28) and AP-Nogo-66 ligands to cells expressing this collection of NgR mutant proteins was assessed at concentrations equal to the predetermined Kd's of the ligands (FIG. 2b, d).

[1] = target: T1, human NgR mutant 163 (mutated to …); experiment: AP-ligand binding to transfected COS-7 cells
Procedure: as §1

| binding result (AP-Nogo-66) | binding result [1] | Binder |
| --- | --- | --- |
| no binding (tested: 5 nM) |  | human NgR mutant 67, 68, 71 (mutated to alanine) (receptor) CPGACVCYNEPKVTTSCPQQGLQAVPVGIPAASQRIFLHGAAISAVPAASFRACRNLTILWLHSNVLARIDAAAFTGLALLEQLDLSDNAQLRSVDPATFHGLGRLHTLHLDRCGLQELGPGLFRGLAALQYLYLQDNALQALPDDTFRDLGNLTHLFLHGNRISSVPERAFRGLHSLDRLLLHQNRVAHVHPHAFRDLGRLMTLYLFANNLSALPTEALAPLRALQYLRLNDNPWVCDCRARPLWAWLQKFRGSSSEVPCSLPQRLAGRDLKRLAANDLQGCAVATGPYHPIWTGRATDEEPLGLPKCCQPDAADKASVLEPGRPASAGNALKGRVPPGDSPPGNGSGPRHINDSPFGTLPGSAEPPLTAVRPEGSEPPGFPTSGPRRRPGCSRKNRTRSHCRLGQAGSGGGGTGDSE |
| no binding (tested: 5 nM) |  | human NgR mutant 133, 136 (mutated to alanine) (receptor) CPGACVCYNEPKVTTSCPQQGLQAVPVGIPAASQRIFLHGNRISHVPAASFRACRNLTILWLHSNVLARIDAAAFTGLALLEQLDLSDNAQLRSVDPATFHGLGRLATLALDRCGLQELGPGLFRGLAALQYLYLQDNALQALPDDTFRDLGNLTHLFLHGNRISSVPERAFRGLHSLDRLLLHQNRVAHVHPHAFRDLGRLMTLYLFANNLSALPTEALAPLRALQYLRLNDNPWVCDCRARPLWAWLQKFRGSSSEVPCSLPQRLAGRDLKRLAANDLQGCAVATGPYHPIWTGRATDEEPLGLPKCCQPDAADKASVLEPGRPASAGNALKGRVPPGDSPPGNGSGPRHINDSPFGTLPGSAEPPLTAVRPEGSEPPGFPTSGPRRRPGCSRKNRTRSHCRLGQAGSGGGGTGDSE |
| no binding (tested: 5 nM) |  | human NgR mutant 82, 179 (mutated to alanine) (receptor) CPGACVCYNEPKVTTSCPQQGLQAVPVGIPAASQRIFLHGNRISHVPAASFRACRALTILWLHSNVLARIDAAAFTGLALLEQLDLSDNAQLRSVDPATFHGLGRLHTLHLDRCGLQELGPGLFRGLAALQYLYLQDNALQALPDDTFRDLGALTHLFLHGNRISSVPERAFRGLHSLDRLLLHQNRVAHVHPHAFRDLGRLMTLYLFANNLSALPTEALAPLRALQYLRLNDNPWVCDCRARPLWAWLQKFRGSSSEVPCSLPQRLAGRDLKRLAANDLQGCAVATGPYHPIWTGRATDEEPLGLPKCCQPDAADKASVLEPGRPASAGNALKGRVPPGDSPPGNGSGPRHINDSPFGTLPGSAEPPLTAVRPEGSEPPGFPTSGPRRRPGCSRKNRTRSHCRLGQAGSGGGGTGDSE |
| no binding (tested: 5 nM) |  | human NgR mutant 67, 68, 71, 89, 90, 92 (mutated to alanine) (receptor) CPGACVCYNEPKVTTSCPQQGLQAVPVGIPAASQRIFLHGAAISAVPAASFRACRNLTILWLAANALARIDAAAFTGLALLEQLDLSDNAQLRSVDPATFHGLGRLHTLHLDRCGLQELGPGLFRGLAALQYLYLQDNALQALPDDTFRDLGNLTHLFLHGNRISSVPERAFRGLHSLDRLLLHQNRVAHVHPHAFRDLGRLMTLYLFANNLSALPTEALAPLRALQYLRLNDNPWVCDCRARPLWAWLQKFRGSSSEVPCSLPQRLAGRDLKRLAANDLQGCAVATGPYHPIWTGRATDEEPLGLPKCCQPDAADKASVLEPGRPASAGNALKGRVPPGDSPPGNGSGPRHINDSPFGTLPGSAEPPLTAVRPEGSEPPGFPTSGPRRRPGCSRKNRTRSHCRLGQAGSGGGGTGDSE |
| no binding (tested: 5 nM) |  | human NgR mutant 87, 89, 133, 136 (mutated to alanine) (receptor) CPGACVCYNEPKVTTSCPQQGLQAVPVGIPAASQRIFLHGNRISHVPAASFRACRNLTILALASNVLARIDAAAFTGLALLEQLDLSDNAQLRSVDPATFHGLGRLATLALDRCGLQELGPGLFRGLAALQYLYLQDNALQALPDDTFRDLGNLTHLFLHGNRISSVPERAFRGLHSLDRLLLHQNRVAHVHPHAFRDLGRLMTLYLFANNLSALPTEALAPLRALQYLRLNDNPWVCDCRARPLWAWLQKFRGSSSEVPCSLPQRLAGRDLKRLAANDLQGCAVATGPYHPIWTGRATDEEPLGLPKCCQPDAADKASVLEPGRPASAGNALKGRVPPGDSPPGNGSGPRHINDSPFGTLPGSAEPPLTAVRPEGSEPPGFPTSGPRRRPGCSRKNRTRSHCRLGQAGSGGGGTGDSE |
|  | no binding (tested: 5 nM) | B1 |
